Data from the nanobody polyreactivity screen of Harvey et al. (2022).

Test: yeast display, Sf9 membrane polyspecificity reagent, FACS + sequencing; frameworks hold sequencing errors
Outline: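 Synthetic nanobody libraries on Saccharomyces cerevisiae BJ5465 were galactose-induced for 36–48 hours, stained 1 hour at 4 °C with 10% biotinylated, detergent-solubilized Sf9 membrane reagent and enriched on streptavidin microbeads. FACS then separated cells into low and high (top ~1%) gates by anti-HA (expression) and streptavidin (reagent binding) fluorescence. Genes were colony-PCR amplified, MiSeq 2 × 250 sequenced and CDR-length filtered. A clone's polyreactivity label is that of its gate of origin.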

Sequence	polyreactivity (PSR sort gate)
QVQLVESGGGLVQAGGSLRLSCAASGSIFGRNAMGWYRQAPGKEREIVAAISQRGGRTYYADSVKGRFTISRDNAKNTVYLQMNRLKPEDTAVYYCAATYTRVPNRFYYWGQGTQVTVSS	high polyreactivity
QVQLVESGGGLVQAGGSLRLSCAASGSIFGRNAMGWYRQAPGKERELVAAISGRASSTFYADSVKGRFTISRDNAKNTVYLQMNSLKPEDTAVYYCAARNSYGGPTYEHYYWGQGTQVTVSS	high polyreactivity
QVQLVESGGGLVQAGGSLRLSCAASGSIFGRYAMGWYRQAPGKERELVAAITYRGGTTYYADSVKGRFTISRDNAKNTVYLQMNSLKPEDTAVYYCAAEGTWYYKYGYFAYYYWGQGTQVTVSS	low polyreactivity
QVQLVESGGGLVQAGGSLRLSCAASGSIFGRYGMGWYRQAPGKERELVAAITSGTRTNYADSVKGRFTISRDNAKTTVYLQMNSLKPEDTAVYYCNALRLRGNYEYGYWGQGTQVTVSS	low polyreactivity
QVQLVESGGGLVQAGGSLRLSCAASGSIFGRYVMGWYRQAPGKERELVAAISTSGDSTYYADSVKGRFTISRDNAKNTVYLQMNSLKPEDTAVYYCNARKRTFPSRSIGGDYWGQGTQVTVSS	high polyreactivity
QVQLVESGGGLVQAGGSLRLSCAASGSIFGSNAMGWYIQAPGKERELVAAITWSDGSTYYADSVKGRFTISRDNAKNTVYLQMNSLKPEDTAVYYCAADSWWGIYYSGYDYWGQGTQVTVSS	low polyreactivity
QVQLVESGGGLVQAGGSLRLSCAASGSIFGSYAMGWYRQAPGKERDLVAAISGSGGRTYYADSVKGRFTISRDNAKNTVYLQMNSLKPEDTAVYYCAAAYPRVTYKYGYYWGQGTQVTVSS	high polyreactivity
QVQLVESGGGLVQAGGSLRLSCAASGSIFGSYAMGWYRQAPGKERELVAAISSSGGSTYYADSVKGRFTISRVNAKNTVYFQMNSLKPEDTAVYYCNKYVRYGDGYWGQGTQVTVSS	high polyreactivity
QVQLVESGGGLVQAGGSLRLSCAASGSIFGSYAMGWYRQAPGKERELVAAISWRGGRTYYADSVKGRFTISRDNAKNTVYLQMNSLKPEDTAVYYCAAERHARSSYEYWGQGTQVTVSS	low polyreactivity
QVQLVESGGGLVQAGGSLRLSCAASGSIFGSYAMGWYRQAPGKERELVAAISYSGGTTYYADSVKGRFTISRDNAKNTVYLQMNSLKPEDTAVYYCNAPVAYQREYDYWGLGTQVTVSS	low polyreactivity
QVQLVESGGGLVQAGGSLRLSCAASGSIFGSYAMGWYRQAPGKERELVAGIRSGGSTYYADSVKGRFTISRDNAKNTVYLQMNSLKPEDTAVYYCAGHEEYWGQGTQVTVSS	low polyreactivity
QVQLVESGGGLVQAGGSLRLSCAASGSIFGSYAMGWYRQAPGKERELVAVITSSGNTKYADSVKGRFTISRDNAKNTVYLQMNSLKPEDTAVYYCAARFITWCSQYSFRSMDYWGQGTQVTVSS	high polyreactivity
QVQLVESGGGLVQAGGSLRLSCAASGSIFGTNAMGWYRQAPGKERELVAAIDGGSTTYYADSVKGRFTISRDNAKNTVYLQMNSLKPEDTAVYYCAADGSRYLNYEGYAGYEYWGQGTQVTVSS	low polyreactivity
QVQLVESGGGLVQAGGSLRLSCAASGSIFGTYAMGGYRQAPGKERELVAAITGNGGRTYYADSVKGRFTISRDNAKNTVYLQMNSLKPEDTAVYYCAKATSRRGFYYWGQGTQVTVSS	high polyreactivity
QVQLVESGGGLVQAGGSLRLSCAASGSIFGTYAMGWDRQARGQERALGAAIRWSSGSTYYADSVNGRFTISRDNATNTESLQMNSLKPADTAVYYCNAEYVYYWLGATFGYWGQGTQVTVSS	high polyreactivity
QVQLVESGGGLVQAGGSLRLSCAASGSIFGTYAMGWYRQAPGKERELVAAITTSAGSTYYADSVKGRFTISRDNAKNTVYLEMNSLKPEDTAVYYCAKYAYTSVHSWYYYWGQGTQVTVSS	high polyreactivity
QVQLVESGGGLVQAGGSLRLSCAASGSIFGVNAMGWYRQAPGKERELVASITGGDSTNYADSEKGRFTISRDNAKNTVYLQMNSLKPEDTAVYYCAKDHYYRYEEGDYWGQGTQVTVSS	low polyreactivity
QVQLVESGGGLVQAGGSLRLSCAASGSIFGVNAMGWYRQAPGKERELVATIRQRGTSTYNADSVKGRFTISRDTAKNTVYLQMNSLKPEDTAVYYCAARGGVLKGYYYWGQGTQVTVSS	high polyreactivity
QVQLVESGGGLVQAGGSLRLSCAASGSIFGVNAMGWYRQAPGKERELVATITWRTGSTYYADSVKGRFTISRDNAKNTVYLQMNSLKPEDTAVYYCAAEDYTEFDYWGQGTQVTVSS	low polyreactivity
QVQLVESGGGLVQAGGSLRLSCAASGSIFGVNDMGWYRQAPGKERELVAGISSSGGSTYDADSVMGRFTISRDNAKNTVYLQMNSLKPEDTAVYYCAARKLYRPRGRRVGYWGQGTQVTVSS	low polyreactivity
QVQLVESGGGLVQAGGSLRLSCAASGSIFGVYAIGWYRQAPGKERELVATISWSAGSTYYADSVKGRFTISRDNAKNTVYLQMNSLKPEDTAVYYCAAGVRWLGLYDLFTFDYWGQGTQVTVSS	low polyreactivity
QVQLVESGGGLVQAGGSLRLSCAASGSIFGVYAMGRYIQAPRKERELVASISRGGSTNYADSVKGRFTISRDNAKNTVYLQMKSLKPEDTAVYYCASDGVYQGWTWLYGLRYNYWGQGTQVTVSS	low polyreactivity

Sequence	polyreactivity (PSR sort gate)
QVQLVESGGGLVQAGGSLRLSCAASGSIFGVYAMGWYRPAPGKERELVAVIRWRGGSTYYADSVKGRFTISRDNAKNTVYLQMNSLKPEDTAVYYCAARRHIVVATYDRRYDYWGQGTQVTVSS	low polyreactivity
QVQLVESGGGLVQAGGSLRLSCAASGSIFGVYAMGWYRQAPGKERELVAAISWSGTSTYYADSVKGRFTISRDNAKNTVYLQMNSLKPEDTAVYYCNADWVLDGYDYDYWGQGTQVTVSS	low polyreactivity
QVQLVESGGGLVQAGGSLRLSCAASGSIFGVYAMGWYRQAPGKESELVATITWRGGSTYYADSVKGRFTISRDNAKNTVYLQMNSLKPEDTSVYYCNARYKWGYYSRYDYWGQGTQVTVSS	high polyreactivity
QVQLVESGGGLVQAGGSLRLSCAASGSIFGVYTMGWYRQAPGKERELVAAITSAGSTYADSVKGRFTISRDKAKNTVYLQMNSLKPEDTAVYYCNAQSVLLSLRVELREPHEYWGQGTQVTVSS	low polyreactivity
QVQLVESGGGLVQAGGSLRLSCAASGSIFGWNAMGWYRQAPGKERELVAAINWTGGTTYYADSVKGRFTISRDNEKNTVYLQMNSLKPEDTAVYYCAARLTYHVAGQMTRYYYWGQGTQVTVSS	low polyreactivity
QVQLVESGGGLVQAGGSLRLSCAASGSIFGWYAMGWYRQAPGKERELVAAISGSGGSTYYADSVKGRFTISRDTAKNTVYLQMNSLKPEDTAVYYCNAYRRVGTSEYWGQGTQVTVSS	high polyreactivity
QVQLVESGGGLVQAGGSLRLSCAASGSIFGWYAMGWYRQAPGKERELVAAITFSSVSTYYADSVKGRFTISRDTAKNTVYLQMNSLKPEDTAVYYCAAVVYYTFDYWGQGTQVTVSS	low polyreactivity
QVQLVESGGGLVQAGGSLRLSCAASGSIFGYNAMGWYRQAPGKEREFVAAIRWSSGSTYYADSVKGRFTISRDNAKNTVYLQMNSLKPEDTAVYYCATRQTYLYWGQGTQVTVSS	high polyreactivity
QVQLVESGGGLVQAGGSLRLSCAASGSIFGYNAMGWYRQAPGKERELDAAISISDGSTYYADSVKGRFTISRDNAKNTVYFQMNSLKPEDTAVYYCAAPRDLSGYGNFGNGPFYYWGQGTQVTVSS	low polyreactivity
QVQLVESGGGLVQAGGSLRLSCAASGSIFGYNAMGWYRQAPGKERELVAAIRISTDNTYYADSVKGRFTISRDNAKNTVYLQMNSLKPEDTAVYYCAADEYWWGYYYWGQGSQVTVSS	high polyreactivity
QVQLVESGGGLVQAGGSLRLSCAASGSIFGYNAMGWYRQAPGKERELVAAISGGGGTYYADSVKGRFTISRDNAKNTVYLQMNSLKPEDTAVYYCATDRGHKWLFYGTYYRYEYWGQGTQVTVSS	low polyreactivity
QVQLVESGGGLVQAGGSLRLSCAASGSIFGYNAMGWYRQAPGKERELVAAISGGGGTYYADSVKGRFTISRDNAKNTVYLQMNSLKPEDTAVYYCATDRVHKWLFYGTYYRYEYWGQGTHVTVSS	low polyreactivity
QVQLVESGGGLVQAGGSLRLSCAASGSIFGYNAMGWYRQAPGKERELVAAISYSGGRTYYADSVKGRFTISRDNAKNTVYLQMNSLKPEDTAVYYCAKYKVGYVPSGYRYDSWGQGTQVTVSS	high polyreactivity
QVQLVESGGGLVQAGGSLRLSCAASGSIFGYNAMGWYRQAPGKERELVAAITSIGGNTYADSVKGRFTISRDNAKNTVYLQMNSLKPEDTAVYYCAAERNTDPIQVVYEFDYWGQGTQVTVSS	low polyreactivity
QVQLVESGGGLVQAGGSLRLSCAASGSIFGYNAMGWYRQARGKERELVAAITSSGGSTYYADSVKGRFTISRDNSKNTVYLQMKSLKPEDTAVYYCNARDWYIVWYDYWGQGTQVTVSS	low polyreactivity
QVQLVESGGGLVQAGGSLRLSCAASGSIFGYYAMGWYRQAPGKEREFVAAITSRVGRTHYADSVKGRFTISRDNAKNTVYLQMNSLKPEDTAVYYCAAEVRQYYRRGYYWGQGTQVTVSS	high polyreactivity
QVQLVESGGGLVQAGGSLRLSCAASGSIFGYYAMGWYRQAPGKERELVAAINRDGGSTYYADSVKGRFTISRDNAKNTVYLQMNSLKPEDTAVYYCAAVVRRPGPGRMDYWGQGTQVTVSS	low polyreactivity
QVQLVESGGGLVQAGGSLRLSCAASGSIFGYYAMGWYRQAPGKERELVAAISSGGNTNYADSVNGRFTISRDNAKITVYLQMTSLKPEDTAVYDCATRARYKRIRYDYWGQGTKVTVSS	high polyreactivity
QVQLVESGGGLVQAGGSLRLSCAASGSIFGYYAMGWYRQAPGKERELVAAISWSGGRTYYADSVKGRFTISRDNAKNTVYLQMNSLKPEDTAVYYCNARWRSGPRAYDYWGQGTQVTVSS	high polyreactivity
QVQLVESGGGLVQAGGSLRLSCAASGSIFGYYAMGWYRQAPGKERELVASIRRGSSTNYADSVKGRFTISRDNAKHTVYLQMNSLKPEDTAVYYCNAVLLSYDGRGYSNLYDYWGQGTQVTVSS	low polyreactivity
QVQLVESGGGLVQAGGSLRLSCAASGSIFGYYAMGWYRQAPGKERELVASISGSGGTTYYADSVKGRFTISRDNAKNTVYLQMNSLKPEDTAVYYCAARRSIYGYPFVTSRRGYWGQGTQVTVSS	high polyreactivity
